In US20080004215:

How the values were obtained:
[1] = biological target: pWGMDY1 (WGMDY1 fused to a 10-mer cell-penetrating peptide sequence of HIV tat-1 protein, phosphorylated form)
[2] = biological target: WGMDY1 (WGMDY1 fused to a 10-mer cell-penetrating peptide sequence of HIV tat-1 protein, unphosphorylated form)

B1: purified glutathione S-transferase (GST) fusion of the phosphatase domain of SHP2 (protein)
chain: GFWEEFETLQQQECKLLYSRKEGQRQENKNKNRYKNILPFDHTRVVLHDGDPNEPVSDYINANIIMPEFETKCNNSKPKKSYIATQGCLQNTVNDFWRMVFQENSRVIVMTTKEVERGKSKCVKYWPDEYALKEYGVMRVRNVKESAAHDYTLRELKLSKVGQGNTERTVWQYHFRTWPDHGVPSDPGGVLDFLEEVHHKQESIMDAGPVVVHCSAGIGRTGTFIVIDILIDIIREKGVDCDIDVPKTIQMVRSQRSGMVQTEAQYRFIYMAVQHYIETLQRRIEEEQKSKRKGHEYTNIKYSLADQTSGDQSPLPPCTPTPPCAEMREDSARVYENVGLMQQQKSFR
**Q.** Which results are given for B1?
**A.** in vitro phosphatase assay: dephosphorylation of para-nitrophenolphosphate (pN) by P, absorbance (OD) at 405 nm at the 5 minutes time point [1]: Addition of pWGMDY1, but not WGMDY1, inhibited the dephosphorylation reaction; in vitro phosphatase assay: dephosphorylation of para-nitrophenolphosphate (pN) by P, absorbance (OD) at 405 nm at the 5 minutes time point [2]: Addition of pWGMDY1, but not WGMDY1, inhibited the dephosphorylation reaction
